According to patent US20150165065A1 (AVIDBIOTICS, published 2015):

Assays:
integrin αVβ3 = biological target: T1, integrin αVβ3 (UniProt P06756 31-992; P05106 27-718); assay: ELISA, coated integrin, anti-MICA-HRP
T1 construct: Coated on the ELISA plate
Protocol: (§1) The ability of the soluble MICA molecules in each of the concentrated supernatants to bind target molecules was assayed by an ELISA using the intended target proteins, integrin αVβ3 or αVβ5, as capture agents on the ELISA plate. After the respective integrins were adhered to the bottoms of the wells of the ELISA plate, the wells were washed and blocked, as well known in the field. Each sample (100 μl) of soluble MICA produced and secreted by 293T cells was added to wells containing αVβ3 or αVβ5, incubated and washed. The soluble MICA molecules captured by the integrins were detected by HRP-conjugated antibody to human MICA developed with Ultra TMB-ELISA substrate and the optical densities read. The quantity of soluble MICA in each sample was determined by the MICA-specific ELISA. […] The ELISA signal from a non-binding, negative control MICA (generated by pSW273) was subtracted from each integrin binding signal.

integrin αVβ5 = biological target: T2, integrin αVβ5 (UniProt P06756 31-992; P18084 24-719); assay: ELISA, coated integrin, anti-MICA-HRP
T2 construct: Coated on the ELISA plate
Protocol: as §1

T1 sequence (P06756 31-992, chain 1 of 2): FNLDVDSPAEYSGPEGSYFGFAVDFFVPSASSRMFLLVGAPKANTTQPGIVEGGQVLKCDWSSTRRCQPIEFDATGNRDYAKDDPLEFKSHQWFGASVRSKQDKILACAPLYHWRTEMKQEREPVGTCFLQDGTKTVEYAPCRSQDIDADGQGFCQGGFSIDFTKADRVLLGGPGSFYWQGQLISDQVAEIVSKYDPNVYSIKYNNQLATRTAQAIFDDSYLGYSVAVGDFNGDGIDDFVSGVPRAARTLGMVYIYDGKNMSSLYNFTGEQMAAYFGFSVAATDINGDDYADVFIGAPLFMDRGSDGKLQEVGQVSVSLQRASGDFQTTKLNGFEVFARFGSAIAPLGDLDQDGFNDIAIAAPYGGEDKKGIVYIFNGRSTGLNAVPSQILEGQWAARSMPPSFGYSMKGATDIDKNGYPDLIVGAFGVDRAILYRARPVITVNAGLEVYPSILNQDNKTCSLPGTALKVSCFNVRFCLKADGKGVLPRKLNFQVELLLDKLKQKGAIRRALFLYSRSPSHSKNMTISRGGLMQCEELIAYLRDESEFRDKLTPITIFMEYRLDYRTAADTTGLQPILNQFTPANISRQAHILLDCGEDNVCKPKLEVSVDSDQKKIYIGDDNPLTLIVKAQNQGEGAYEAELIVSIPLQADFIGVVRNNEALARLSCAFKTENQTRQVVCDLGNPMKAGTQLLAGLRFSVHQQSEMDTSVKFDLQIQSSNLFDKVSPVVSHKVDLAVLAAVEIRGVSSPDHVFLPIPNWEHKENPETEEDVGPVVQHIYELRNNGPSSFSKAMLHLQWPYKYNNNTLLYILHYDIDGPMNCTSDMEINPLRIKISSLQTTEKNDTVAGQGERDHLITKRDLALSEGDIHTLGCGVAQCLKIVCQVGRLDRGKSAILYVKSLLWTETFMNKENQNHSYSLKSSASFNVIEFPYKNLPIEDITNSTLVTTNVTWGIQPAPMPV
T1 sequence (P05106 27-718, chain 2 of 2): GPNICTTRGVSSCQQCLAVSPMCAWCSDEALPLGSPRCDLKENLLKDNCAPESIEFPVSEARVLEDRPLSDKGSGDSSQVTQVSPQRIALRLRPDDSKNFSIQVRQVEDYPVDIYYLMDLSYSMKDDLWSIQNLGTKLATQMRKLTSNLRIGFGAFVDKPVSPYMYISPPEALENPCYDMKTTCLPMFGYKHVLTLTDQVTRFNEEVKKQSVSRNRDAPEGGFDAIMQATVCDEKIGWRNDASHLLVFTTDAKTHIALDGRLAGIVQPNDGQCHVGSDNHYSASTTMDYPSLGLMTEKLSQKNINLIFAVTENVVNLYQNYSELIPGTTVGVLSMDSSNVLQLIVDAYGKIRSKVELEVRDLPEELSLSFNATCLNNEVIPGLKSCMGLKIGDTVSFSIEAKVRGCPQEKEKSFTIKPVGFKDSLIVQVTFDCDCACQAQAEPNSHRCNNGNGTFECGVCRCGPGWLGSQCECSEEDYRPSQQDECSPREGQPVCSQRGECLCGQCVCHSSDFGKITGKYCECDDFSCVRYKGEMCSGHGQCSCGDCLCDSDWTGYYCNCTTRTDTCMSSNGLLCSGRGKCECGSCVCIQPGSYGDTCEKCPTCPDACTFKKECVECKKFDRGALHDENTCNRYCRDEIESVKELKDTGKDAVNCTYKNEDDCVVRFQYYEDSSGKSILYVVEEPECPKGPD
T2 sequence (P06756 31-992, chain 1 of 2): as the sequence (P06756 31-992, chain 1 of 2) above
T2 sequence (P18084 24-719, chain 2 of 2): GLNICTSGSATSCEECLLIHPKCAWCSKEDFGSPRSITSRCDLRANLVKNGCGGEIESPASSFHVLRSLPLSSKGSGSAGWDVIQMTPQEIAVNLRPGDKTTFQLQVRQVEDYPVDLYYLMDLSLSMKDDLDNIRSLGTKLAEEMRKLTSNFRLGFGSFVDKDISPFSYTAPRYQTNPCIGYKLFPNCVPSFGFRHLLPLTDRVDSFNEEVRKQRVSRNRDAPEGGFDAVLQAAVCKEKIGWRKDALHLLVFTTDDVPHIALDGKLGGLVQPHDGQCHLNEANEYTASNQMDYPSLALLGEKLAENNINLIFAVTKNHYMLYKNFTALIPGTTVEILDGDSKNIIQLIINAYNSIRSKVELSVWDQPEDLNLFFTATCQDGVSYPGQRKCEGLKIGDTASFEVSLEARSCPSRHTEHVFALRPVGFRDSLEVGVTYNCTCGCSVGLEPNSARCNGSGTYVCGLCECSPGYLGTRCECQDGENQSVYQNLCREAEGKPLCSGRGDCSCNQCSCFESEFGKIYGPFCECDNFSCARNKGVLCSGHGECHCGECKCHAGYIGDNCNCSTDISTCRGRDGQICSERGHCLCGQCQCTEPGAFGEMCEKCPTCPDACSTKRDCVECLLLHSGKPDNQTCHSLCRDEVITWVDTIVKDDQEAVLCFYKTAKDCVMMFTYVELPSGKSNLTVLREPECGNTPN

| αvβ3 signal (integrin αVβ3) | αvβ3 signal/ng (integrin αVβ3) | αvβ5 signal (integrin αVβ5) | αvβ5 signal/ng (integrin αVβ5) | Binder |
| --- | --- | --- | --- | --- |
| 0.478 OD | 6.08 signal/ng MICA | 0.604 OD | 7.68 signal/ng MICA | soluble MICA generated from pKK48 (loop 3 insert extended 3.2sp) (designed binder, From pSW276 (no N-terminal His tag, Lys125); secreted by 293T cells; also called 3-3.2sp) EPHSLRYNLTVLSWDGSVQSGFLTEVHLDGQPFLRCDRQKCRAKPQGQWAEDVLGNKTWDRETRDLTGNGKDLRMTLAHIKDQKEGLHSLQEIRVCEIHEDNSTRSSQHFYYDGELFLSQNLETKEWTMPQSSRAQTLAMNVRNFLKEDAMKTKTHYHAMHADCLQELRRYLKSGVVLRRTVPPMVNVTRSEASEGNITVTCRASGFYPWNITLSWRQDGVSLSHDTQQWGDVLPDGNGTYQTWVATRISGGSGGGSTSRGDHPRTQSGGSGGGCYMEHSGNHSTHPVPSGK |
| 0.508 OD | 5.86 signal/ng MICA | 0.478 OD | 5.51 signal/ng MICA | soluble MICA generated from pKK49 (loop 3 insert extended 3.3sp) (designed binder, From pSW276 (no N-terminal His tag, Lys125); secreted by 293T cells; also called 3-3.3sp) EPHSLRYNLTVLSWDGSVQSGFLTEVHLDGQPFLRCDRQKCRAKPQGQWAEDVLGNKTWDRETRDLTGNGKDLRMTLAHIKDQKEGLHSLQEIRVCEIHEDNSTRSSQHFYYDGELFLSQNLETKEWTMPQSSRAQTLAMNVRNFLKEDAMKTKTHYHAMHADCLQELRRYLKSGVVLRRTVPPMVNVTRSEASEGNITVTCRASGFYPWNITLSWRQDGVSLSHDTQQWGDVLPDGNGTYQTWVATRISGGSGGGSRVPRGDSDLTSGGSGGGCYMEHSGNHSTHPVPSGK |
| 0.546 OD | 5.85 signal/ng MICA | 0.721 OD | 7.73 signal/ng MICA | soluble MICA generated from pKK50 (loop 3 insert extended 5.1sp) (designed binder, From pSW276 (no N-terminal His tag, Lys125); secreted by 293T cells; also called 3-5.1sp) EPHSLRYNLTVLSWDGSVQSGFLTEVHLDGQPFLRCDRQKCRAKPQGQWAEDVLGNKTWDRETRDLTGNGKDLRMTLAHIKDQKEGLHSLQEIRVCEIHEDNSTRSSQHFYYDGELFLSQNLETKEWTMPQSSRAQTLAMNVRNFLKEDAMKTKTHYHAMHADCLQELRRYLKSGVVLRRTVPPMVNVTRSEASEGNITVTCRASGFYPWNITLSWRQDGVSLSHDTQQWGDVLPDGNGTYQTWVATRISGGSGGGSVTRGDTFTQSSGGSGGGCYMEHSGNHSTHPVPSGK |
| 0.694 OD | 7.2 signal/ng MICA | 1.05 OD | 10.9 signal/ng MICA | soluble MICA generated from pKK51 (loop 3 insert extended 5.3sp) (designed binder, From pSW276 (no N-terminal His tag, Lys125); secreted by 293T cells; also called 3-5.3sp) EPHSLRYNLTVLSWDGSVQSGFLTEVHLDGQPFLRCDRQKCRAKPQGQWAEDVLGNKTWDRETRDLTGNGKDLRMTLAHIKDQKEGLHSLQEIRVCEIHEDNSTRSSQHFYYDGELFLSQNLETKEWTMPQSSRAQTLAMNVRNFLKEDAMKTKTHYHAMHADCLQELRRYLKSGVVLRRTVPPMVNVTRSEASEGNITVTCRASGFYPWNITLSWRQDGVSLSHDTQQWGDVLPDGNGTYQTWVATRISGGSGGGSHLARGDDLTYSGGSGGGCYMEHSGNHSTHPVPSGK |
| 0.516 OD | 17.7 signal/ng MICA | 0.65 OD | 22.4 signal/ng MICA | soluble MICA generated from pKK41 (loop 1 insert 5.2) (designed binder, From pKK34 (His6, Glu125); secreted by 293T cells; also called 1-5.2) HHHHHHEPHSLRYNLTVLSWDGSVQSGFLTEVHLDGQPFLRCDRQKCRAKPQGQWAEDVLGNKTWDRETRDLTGNGKDLRMTLAHIKDQKEGLHSLQEIRVCEIHEDNSTRSSQHFYYDGELFLSQNLETEEWTMPQSSRAQTLAMNVRNFLKEDAMKTKTHYHAMHADCLQELRRYLKSGVVLRRTVPPMVNVTRGDTFTQSVTCRASGFYPWNITLSWRQDGVSLSHDTQQWGDVLPDGNGTYQTWVATRICQGEEQRFTCYMEHSGNHSTHPVPSGK |
| 0.777 OD | 22.4 signal/ng MICA | 0.779 OD | 22.4 signal/ng MICA | soluble MICA generated from pKK37 (loop 1 insert 3.2) (designed binder, From pKK34 (His6, Glu125); secreted by 293T cells; also called 1-3.2) HHHHHHEPHSLRYNLTVLSWDGSVQSGFLTEVHLDGQPFLRCDRQKCRAKPQGQWAEDVLGNKTWDRETRDLTGNGKDLRMTLAHIKDQKEGLHSLQEIRVCEIHEDNSTRSSQHFYYDGELFLSQNLETEEWTMPQSSRAQTLAMNVRNFLKEDAMKTKTHYHAMHADCLQELRRYLKSGVVLRRTVPPMVNVTRTSRGDHPRTQVTCRASGFYPWNITLSWRQDGVSLSHDTQQWGDVLPDGNGTYQTWVATRICQGEEQRFTCYMEHSGNHSTHPVPSGK |
| 0.55 OD | 19 signal/ng MICA | 0.526 OD | 18.1 signal/ng MICA | soluble MICA generated from pKK36 (loop 1 insert 3.1) (designed binder, From pKK34 (His6, Glu125); secreted by 293T cells; also called 1-3.1) HHHHHHEPHSLRYNLTVLSWDGSVQSGFLTEVHLDGQPFLRCDRQKCRAKPQGQWAEDVLGNKTWDRETRDLTGNGKDLRMTLAHIKDQKEGLHSLQEIRVCEIHEDNSTRSSQHFYYDGELFLSQNLETEEWTMPQSSRAQTLAMNVRNFLKEDAMKTKTHYHAMHADCLQELRRYLKSGVVLRRTVPPMVNVTSRGDHPRTQVTCRASGFYPWNITLSWRQDGVSLSHDTQQWGDVLPDGNGTYQTWVATRICQGEEQRFTCYMEHSGNHSTHPVPSGK |
| 0.41 OD | 8.92 signal/ng MICA | 0.46 OD | 10 signal/ng MICA | soluble MICA generated from pKK44 (loop 1 insert extended 3.2sp) (designed binder, From pKK34 (His6, Glu125); secreted by 293T cells; also called 1-3.2sp) HHHHHHEPHSLRYNLTVLSWDGSVQSGFLTEVHLDGQPFLRCDRQKCRAKPQGQWAEDVLGNKTWDRETRDLTGNGKDLRMTLAHIKDQKEGLHSLQEIRVCEIHEDNSTRSSQHFYYDGELFLSQNLETEEWTMPQSSRAQTLAMNVRNFLKEDAMKTKTHYHAMHADCLQELRRYLKSGVVLRRTVPPMVNVTSGGSGGGSTSRGDHPRTQSGGSGGGVTCRASGFYPWNITLSWRQDGVSLSHDTQQWGDVLPDGNGTYQTWVATRICQGEEQRFTCYMEHSGNHSTHPVPSGK |
| 0.294 OD | 9.99 signal/ng MICA | 0.276 OD | 9.38 signal/ng MICA | soluble MICA generated from pKK47 (loop 1 insert extended 5.3sp) (designed binder, From pKK34 (His6, Glu125); secreted by 293T cells; also called 1-5.3sp) HHHHHHEPHSLRYNLTVLSWDGSVQSGFLTEVHLDGQPFLRCDRQKCRAKPQGQWAEDVLGNKTWDRETRDLTGNGKDLRMTLAHIKDQKEGLHSLQEIRVCEIHEDNSTRSSQHFYYDGELFLSQNLETEEWTMPQSSRAQTLAMNVRNFLKEDAMKTKTHYHAMHADCLQELRRYLKSGVVLRRTVPPMVNVTSGGSGGGSHLARGDDLTYSGGSGGGVTCRASGFYPWNITLSWRQDGVSLSHDTQQWGDVLPDGNGTYQTWVATRICQGEEQRFTCYMEHSGNHSTHPVPSGK |
| 0.393 OD | 9.51 signal/ng MICA | 0.41 OD | 9.92 signal/ng MICA | soluble MICA generated from pKK45 (loop 1 insert extended 3.3sp) (designed binder, From pKK34 (His6, Glu125); secreted by 293T cells; also called 1-3.3sp) HHHHHHEPHSLRYNLTVLSWDGSVQSGFLTEVHLDGQPFLRCDRQKCRAKPQGQWAEDVLGNKTWDRETRDLTGNGKDLRMTLAHIKDQKEGLHSLQEIRVCEIHEDNSTRSSQHFYYDGELFLSQNLETEEWTMPQSSRAQTLAMNVRNFLKEDAMKTKTHYHAMHADCLQELRRYLKSGVVLRRTVPPMVNVTSGGSGGGSRVPRGDSDLTSGGSGGGVTCRASGFYPWNITLSWRQDGVSLSHDTQQWGDVLPDGNGTYQTWVATRICQGEEQRFTCYMEHSGNHSTHPVPSGK |
| 0.291 OD | 30.7 signal/ng MICA | 0.291 OD | 30.7 signal/ng MICA | soluble MICA generated from pKK38 (loop 1 insert 3.3) (designed binder, From pKK34 (His6, Glu125); secreted by 293T cells; also called 1-3.3) HHHHHHEPHSLRYNLTVLSWDGSVQSGFLTEVHLDGQPFLRCDRQKCRAKPQGQWAEDVLGNKTWDRETRDLTGNGKDLRMTLAHIKDQKEGLHSLQEIRVCEIHEDNSTRSSQHFYYDGELFLSQNLETEEWTMPQSSRAQTLAMNVRNFLKEDAMKTKTHYHAMHADCLQELRRYLKSGVVLRRTVPPMVNVTRVPRGDSDLTVTCRASGFYPWNITLSWRQDGVSLSHDTQQWGDVLPDGNGTYQTWVATRICQGEEQRFTCYMEHSGNHSTHPVPSGK |
| 0.485 OD | 19.5 signal/ng MICA | 0.675 OD | 27.1 signal/ng MICA | soluble MICA generated from pKK40 (loop 1 insert 5.1) (designed binder, From pKK34 (His6, Glu125); secreted by 293T cells; also called 1-5.1) HHHHHHEPHSLRYNLTVLSWDGSVQSGFLTEVHLDGQPFLRCDRQKCRAKPQGQWAEDVLGNKTWDRETRDLTGNGKDLRMTLAHIKDQKEGLHSLQEIRVCEIHEDNSTRSSQHFYYDGELFLSQNLETEEWTMPQSSRAQTLAMNVRNFLKEDAMKTKTHYHAMHADCLQELRRYLKSGVVLRRTVPPMVNVTVTRGDTFTQSVTCRASGFYPWNITLSWRQDGVSLSHDTQQWGDVLPDGNGTYQTWVATRICQGEEQRFTCYMEHSGNHSTHPVPSGK |
| 0.526 OD | 21.2 signal/ng MICA | 0.565 OD | 22.8 signal/ng MICA | soluble MICA generated from pKK42 (loop 1 insert 5.3) (designed binder, From pKK34 (His6, Glu125); secreted by 293T cells; also called 1-5.3) HHHHHHEPHSLRYNLTVLSWDGSVQSGFLTEVHLDGQPFLRCDRQKCRAKPQGQWAEDVLGNKTWDRETRDLTGNGKDLRMTLAHIKDQKEGLHSLQEIRVCEIHEDNSTRSSQHFYYDGELFLSQNLETEEWTMPQSSRAQTLAMNVRNFLKEDAMKTKTHYHAMHADCLQELRRYLKSGVVLRRTVPPMVNVTHLARGDDLTYVTCRASGFYPWNITLSWRQDGVSLSHDTQQWGDVLPDGNGTYQTWVATRICQGEEQRFTCYMEHSGNHSTHPVPSGK |
| 0.482 OD | 18 signal/ng MICA | 0.528 OD | 19.7 signal/ng MICA | soluble MICA generated from pKK39 (loop 1 insert 3.4) (designed binder, From pKK34 (His6, Glu125); secreted by 293T cells; also called 1-3.4) HHHHHHEPHSLRYNLTVLSWDGSVQSGFLTEVHLDGQPFLRCDRQKCRAKPQGQWAEDVLGNKTWDRETRDLTGNGKDLRMTLAHIKDQKEGLHSLQEIRVCEIHEDNSTRSSQHFYYDGELFLSQNLETEEWTMPQSSRAQTLAMNVRNFLKEDAMKTKTHYHAMHADCLQELRRYLKSGVVLRRTVPPMVNVTRSARGDSDHRVTCRASGFYPWNITLSWRQDGVSLSHDTQQWGDVLPDGNGTYQTWVATRICQGEEQRFTCYMEHSGNHSTHPVPSGK |
